Experiment [1] addresses Cdk1 protein (UniProt P06493). Nature of the experiment: cell-based or functional assay.
Experiment [2] has as its target CBP protein (CREB Binding Protein). Kind of experiment: cell-based or functional assay.

Cdk1 protein, sequence (P06493 whole entry): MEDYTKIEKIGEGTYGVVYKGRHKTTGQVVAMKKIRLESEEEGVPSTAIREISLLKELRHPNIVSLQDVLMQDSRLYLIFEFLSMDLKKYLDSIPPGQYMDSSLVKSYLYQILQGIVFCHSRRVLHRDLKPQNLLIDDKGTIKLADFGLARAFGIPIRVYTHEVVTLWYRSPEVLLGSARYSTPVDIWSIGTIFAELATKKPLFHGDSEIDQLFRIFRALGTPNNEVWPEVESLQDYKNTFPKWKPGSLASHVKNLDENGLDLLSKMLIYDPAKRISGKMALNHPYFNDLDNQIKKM

With “CMV T7-FoxM1B L641A mutant protein (from UniProt Q08050 1-763)”, the FoxM1B transcriptional activity (6x FoxM1B TATA-luciferase reporter, U2OS cells) in experiment [1] came out at 80 % reduction.
For the substance “T7-FoxM1B WT protein (CMV T7-FoxM1B WT) (from UniProt Q08050 1-763)”, the FoxM1B transcriptional activity (6x FoxM1B TATA-luciferase reporter, U2OS cells) (% stimulation) in experiment [2] is 50.

(Values after patent US20050032692A1.)
